The record followed here is patent publication US20250197514A1 (INTERVET, published 2025).

Experiment [1] addresses T1, canine FcRn heterodimer (FCGRT large subunit p51 + beta-2-microglobulin), biotin-labeled (Canis lupus familiaris; Canis familiaris, biotin-labeled (site not stated; the chain carries an AviTag)).
T1 construct: also called FcRn/B2M; FcRn/β2M; not shown: AviTag, named only
T1 chain (part 1 of 2): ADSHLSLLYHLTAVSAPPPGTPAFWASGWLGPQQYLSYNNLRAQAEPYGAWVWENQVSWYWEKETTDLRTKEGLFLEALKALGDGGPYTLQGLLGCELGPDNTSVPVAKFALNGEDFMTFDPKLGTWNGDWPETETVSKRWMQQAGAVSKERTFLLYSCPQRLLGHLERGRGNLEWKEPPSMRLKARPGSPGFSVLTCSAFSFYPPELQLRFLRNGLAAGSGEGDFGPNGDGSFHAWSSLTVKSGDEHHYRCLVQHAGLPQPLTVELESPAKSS
T1 chain (part 2 of 2): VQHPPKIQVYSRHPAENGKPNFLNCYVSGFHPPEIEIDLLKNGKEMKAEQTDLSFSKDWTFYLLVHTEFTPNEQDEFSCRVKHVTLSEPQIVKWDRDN
Nature of the experiment: BLI (Octet HTX), biotinylated FcRn/B2M on streptavidin biosensors, analyte 500-7.8 nM, pH 7.4, 1:1 fit. The protocol: (§1) The binding of antibodies and IgG Fc fusion proteins to FcRn proteins was determined by Octet™ HTX using Streptavidin (SA) biosensors. First, biotin-labeled […] was loaded onto pre-hydrated SA biosensors for 60 s at a concentration of 10 μg/mL. Second, the biosensors were placed into pH 6.0 TBS/Casein buffer for the blocking phase for 180 s. Third, for the association phase, FcRn/B2M loaded biosensors were placed into 2-fold serial dilutions from 500 nM down to 7.8 nM of antibody or IgG Fc fusion protein in pH 6.0 or 7.4 TBS/Casein buffer for 15 s. Finally, the biosensors were placed into either pH 6.0 or pH 7.4 TBS/Casein buffer for the dissociation phase for 60 s. Analysis was performed using Octet Data Analysis 12.0 software and curves were fitted using a 1:1 binding model.
In general terms: In BLI a coated tip is dipped into the sample, and binding shifts an interference pattern.

The target of experiment [2] is T1, canine FcRn heterodimer (FCGRT large …). As to the kind of experiment: BLI (Octet HTX), biotinylated FcRn/B2M on streptavidin biosensors, analyte 500-7.8 nM, pH 6.0, 1:1 fit. The protocol: as §1

B1: cIL-13Ra2-Fc (unsubstituted canine IL-13Rα2 ECD - cIgG-B hinge - cIgG-B Fc fusion protein) (Fc fusion)
chain: SMLSNAEIKVNPPQDFEIVDPGYLGYLSLQWQPPLFPDNFKECTIEYELKYRNIDSENWKTIITKNLHYKDGFDLNKGIEAKINTLLPAQCTNGSEVRSSWAETTYWTSPQGNRETKIQDMDCVYYNWQYLVCSWKPGMGVHFDTNYQLFYWYEGLDHSAECTDYIKVNGKNMGCRFPYLESSDYKDFYICVNGSSESQPIRPSYFIFQLQNIVKPMPPDYLSLTVKNSEEINLKWNMPKGPIPAKCFIYEIEFTEDGTTWVTTTVENEIQITRTSNESQKLCFLVRSKVNIYCSDDGIWSEWSDEQCWKGDIWKETPKRENGRVPRPPDCPKCPAPEMLGGPSVFIFPPKPKDTLLIARTPEVTCVVVDLDPEDPEVQISWFVDGKQMQTAKTQPREEQFNGTYRVVSVLPIGHQDWLKGKQFTCKVNNKALPSPIERTISKARGQAHQPSVYVLPPSREELSKNTVSLTCLIKDFFPPDIDVEWQSNGQQEPESKYRTTPPQLDEDGSYFLYSKLSVDKSRWQRGDTFICAVMHEALHNHYTQESLSHSPGK
notes: also called cIL-13Rα2-cIgGB-Fc; substitution: None
Consider B1, for which the Kd (usually the equilibrium constant for the complex coming apart) in experiment [1] worked out at 7020 nM; in experiment [2], 16.9 nM.

B2: cIL-13Rα2-cIgGB-Fc-K (Fc fusion)
chain: SMLSNAEIKVNPPQDFEIVDPGYLGYLSLQWQPPLFPDNFKECTIEYELKYRNIDSENWKTIITKNLHYKDGFDLNKGIEAKINTLLPAQCTNGSEVRSSWAETTYWTSPQGNRETKIQDMDCVYYNWQYLVCSWKPGMGVHFDTNYQLFYWYEGLDHSAECTDYIKVNGKNMGCRFPYLESSDYKDFYICVNGSSESQPIRPSYFIFQLQNIVKPMPPDYLSLTVKNSEEINLKWNMPKGPIPAKCFIYEIEFTEDGTTWVTTTVENEIQITRTSNESQKLCFLVRSKVNIYCSDDGIWSEWSDEQCWKGDIWKETPKRENGRVPRPPDCPKCPAPEMLGGPSVFIFPPKPKDTLLIARTPEVTCVVVDLDPEDPEVQISWFVDGKQMQTAKTQPREEQFNGTYRVVSVLPIGHQDWLKGKQFTCKVNNKALPSPIERTISKARGQAHQPSVYVLPPSREELSKNTVSLTCLIKDFFPPDIDVEWQSNGQQEPESKYRTTPPQLDEDGSYFLYSKLSVDKSRWQRGDTFICAVMHEALKNHYTQESLSHSPGK
notes: also called cIL-13Ra2-cIgGB-Fc-K; H433K
In the case of B2, the figures for the equilibrium dissociation constant (Kd) in experiment [1] and in experiment [2] were 626 nM and 7.55 nM, respectively.

B3: cIL-13Ra2-Fc-YTE (Fc fusion)
chain: SMLSNAEIKVNPPQDFEIVDPGYLGYLSLQWQPPLFPDNFKECTIEYELKYRNIDSENWKTIITKNLHYKDGFDLNKGIEAKINTLLPAQCTNGSEVRSSWAETTYWTSPQGNRETKIQDMDCVYYNWQYLVCSWKPGMGVHFDTNYQLFYWYEGLDHSAECTDYIKVNGKNMGCRFPYLESSDYKDFYICVNGSSESQPIRPSYFIFQLQNIVKPMPPDYLSLTVKNSEEINLKWNMPKGPIPAKCFIYEIEFTEDGTTWVTTTVENEIQITRTSNESQKLCFLVRSKVNIYCSDDGIWSEWSDEQCWKGDIWKETPKRENGRVPRPPDCPKCPAPEMLGGPSVFIFPPKPKDTLYITREPEVTCVVVDLDPEDPEVQISWFVDGKQMQTAKTQPREEQFNGTYRVVSVLPIGHQDWLKGKQFTCKVNNKALPSPIERTISKARGQAHQPSVYVLPPSREELSKNTVSLTCLIKDFFPPDIDVEWQSNGQQEPESKYRTTPPQLDEDGSYFLYSKLSVDKSRWQRGDTFICAVMHEALHNHYTQESLSHSPGK
notes: also called L252Y/A254T/T256E
Regarding B3, the dissociation constant Kd in experiment [1] is 363 nM; in experiment [2], 6.59 nM.

B4: cIL-13Rα2-cIgGB-Fc-F (Fc fusion)
chain: SMLSNAEIKVNPPQDFEIVDPGYLGYLSLQWQPPLFPDNFKECTIEYELKYRNIDSENWKTIITKNLHYKDGFDLNKGIEAKINTLLPAQCTNGSEVRSSWAETTYWTSPQGNRETKIQDMDCVYYNWQYLVCSWKPGMGVHFDTNYQLFYWYEGLDHSAECTDYIKVNGKNMGCRFPYLESSDYKDFYICVNGSSESQPIRPSYFIFQLQNIVKPMPPDYLSLTVKNSEEINLKWNMPKGPIPAKCFIYEIEFTEDGTTWVTTTVENEIQITRTSNESQKLCFLVRSKVNIYCSDDGIWSEWSDEQCWKGDIWKETPKRENGRVPRPPDCPKCPAPEMLGGPSVFIFPPKPKDTLLIARTPEVTCVVVDLDPEDPEVQISWFVDGKQMQTAKTQPREEQFNGTYRVVSVLPIGHQDWLKGKQFTCKVNNKALPSPIERTISKARGQAHQPSVYVLPPSREELSKNTVSLTCLIKDFFPPDIDVEWQSNGQQEPESKYRTTPPQLDEDGSYFLYSKLSVDKSRWQRGDTFICAVMHEALHFHYTQESLSHSPGK
notes: also called cIL-13Ra2-cIgGB-Fc-F; N434F
For the molecule B4, the figures for the Kd in experiment [1] and in experiment [2] were 229 nM and 0.93 nM, respectively.

B5: cIL-13Rα2-cIgGB-Fc-KYT (Fc fusion)
chain: SMLSNAEIKVNPPQDFEIVDPGYLGYLSLQWQPPLFPDNFKECTIEYELKYRNIDSENWKTIITKNLHYKDGFDLNKGIEAKINTLLPAQCTNGSEVRSSWAETTYWTSPQGNRETKIQDMDCVYYNWQYLVCSWKPGMGVHFDTNYQLFYWYEGLDHSAECTDYIKVNGKNMGCRFPYLESSDYKDFYICVNGSSESQPIRPSYFIFQLQNIVKPMPPDYLSLTVKNSEEINLKWNMPKGPIPAKCFIYEIEFTEDGTTWVTTTVENEIQITRTSNESQKLCFLVRSKVNIYCSDDGIWSEWSDEQCWKGDIWKETPKRENGRVPRPPDCPKCPAPEMLGGPSVFIFPPKPKDTLLIARTPEVTCVVVDLDPEDPEVQISWFVDGKQMQTAKTQPREEQFNGTYRVVSVLPIGHQDWLKGKQFTCKVNNKALPSPIERTISKARGQAHQPSVYVLPPSREELSKNTVSLTCLIKDFFPPDIDVEWQSNGQQEPESKYRTTPPQLDEDGSYFLYSKLSVDKSRWQRGDTFICAVMHEALKYHTTQESLSHSPGK
notes: also called cIL-13Ra2-cIgGB-Fc-KYT; H433K/N434Y/Y436T
Regarding B5, the Kd is 253 nM in experiment [1] and 2.58 nM in experiment [2].

B6: cIL-13Rα2-cIgGB-Fc-DY (Fc fusion)
chain: SMLSNAEIKVNPPQDFEIVDPGYLGYLSLQWQPPLFPDNFKECTIEYELKYRNIDSENWKTIITKNLHYKDGFDLNKGIEAKINTLLPAQCTNGSEVRSSWAETTYWTSPQGNRETKIQDMDCVYYNWQYLVCSWKPGMGVHFDTNYQLFYWYEGLDHSAECTDYIKVNGKNMGCRFPYLESSDYKDFYICVNGSSESQPIRPSYFIFQLQNIVKPMPPDYLSLTVKNSEEINLKWNMPKGPIPAKCFIYEIEFTEDGTTWVTTTVENEIQITRTSNESQKLCFLVRSKVNIYCSDDGIWSEWSDEQCWKGDIWKETPKRENGRVPRPPDCPKCPAPEMLGGPSVFIFPPKPKDTLLIARDPEVTCVVVDLDPEDPEVQISWFVDGKQMQTAKTQPREEQFNGTYRVVSVLPIGHQDWLKGKQFTCKVNNKALPSPIERTISKARGQAHQPSVYVLPPSREELSKNTVSLTCLIKDFFPPDIDVEWQSNGQQEPESKYRTTPPQLDEDGSYFLYSKLSVDKSRWQRGDTFICAVMHEALHYHYTQESLSHSPGK
notes: also called cIL-13Ra2-cIgGB-Fc-DY; T256D/N434Y
In the case of B6, the Kd in experiment [1] came out at 91.8 nM; in experiment [2], 0.87 nM.

B7: cIL-13Rα2-cIgGB-Fc-DPY (Fc fusion)
chain: SMLSNAEIKVNPPQDFEIVDPGYLGYLSLQWQPPLFPDNFKECTIEYELKYRNIDSENWKTIITKNLHYKDGFDLNKGIEAKINTLLPAQCTNGSEVRSSWAETTYWTSPQGNRETKIQDMDCVYYNWQYLVCSWKPGMGVHFDTNYQLFYWYEGLDHSAECTDYIKVNGKNMGCRFPYLESSDYKDFYICVNGSSESQPIRPSYFIFQLQNIVKPMPPDYLSLTVKNSEEINLKWNMPKGPIPAKCFIYEIEFTEDGTTWVTTTVENEIQITRTSNESQKLCFLVRSKVNIYCSDDGIWSEWSDEQCWKGDIWKETPKRENGRVPRPPDCPKCPAPEMLGGPSVFIFPPKPKDTLLIARDPEVTCVVVDLDPEDPEVQISWFVDGKQMQTAKTQPREEQFNGTYRVVSVLPPGHQDWLKGKQFTCKVNNKALPSPIERTISKARGQAHQPSVYVLPPSREELSKNTVSLTCLIKDFFPPDIDVEWQSNGQQEPESKYRTTPPQLDEDGSYFLYSKLSVDKSRWQRGDTFICAVMHEALHYHYTQESLSHSPGK
notes: also called cIL-13Ra2-cIgGB-Fc-DPY; T256D/I308P/N434Y
Take B7: the Kd in experiment [1] stood at 19.8 nM; in experiment [2] it was 0.34 nM.

B8: cIL-13Rα2-cIgGB-Fc-KF (Fc fusion)
chain: SMLSNAEIKVNPPQDFEIVDPGYLGYLSLQWQPPLFPDNFKECTIEYELKYRNIDSENWKTIITKNLHYKDGFDLNKGIEAKINTLLPAQCTNGSEVRSSWAETTYWTSPQGNRETKIQDMDCVYYNWQYLVCSWKPGMGVHFDTNYQLFYWYEGLDHSAECTDYIKVNGKNMGCRFPYLESSDYKDFYICVNGSSESQPIRPSYFIFQLQNIVKPMPPDYLSLTVKNSEEINLKWNMPKGPIPAKCFIYEIEFTEDGTTWVTTTVENEIQITRTSNESQKLCFLVRSKVNIYCSDDGIWSEWSDEQCWKGDIWKETPKRENGRVPRPPDCPKCPAPEMLGGPSVFIFPPKPKDTLLIARTPEVTCVVVDLDPEDPEVQISWFVDGKQMQTAKTQPREEQFNGTYRVVSVLPIGHQDWLKGKQFTCKVNNKALPSPIERTISKARGQAHQPSVYVLPPSREELSKNTVSLTCLIKDFFPPDIDVEWQSNGQQEPESKYRTTPPQLDEDGSYFLYSKLSVDKSRWQRGDTFICAVMHEALKFHYTQESLSHSPGK
notes: also called cIL-13Ra2-cIgGB-Fc-KF; H433K/N434F
For the molecule B8, the dissociation constant (Kd) in experiment [1] amounted to 414 nM; in experiment [2] it was 0.97 nM.
